Laboratory results reported in the supplement of paper PMC9112550, “Optimization of the antimicrobial peptide Bac7 by deep mutational scanning” (BMC Biology, 2022).

System: Escherichia coli TOP10
Assay: shrunken log2 fold change of peptide-encoding DNA abundance (4.5 h post-induction vs induction); higher = less antimicrobial activity (less host growth inhibition)
Conditions: time post-induction: 4.5 h; library: site-saturation at positions 5, 18, 19, 20
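Note: peptides expressed intracellularly from a pBAD plasmid library in pooled LB shake-flask culture, induced with 0.3% L-arabinose, DNA abundance read by NGS, three biological replicates, DESeq2 with apeglm shrinkage.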

Row | Sequence | shrunken log2 fold change
1 | RRIRGRPPRLPRPRPRPVAFPRP | 0.722
2 | RRIRWRPPRLPRPRPRPITQPRP | -0.0367
3 | RRIRMRPPRLPRPRPRPPTGPRP | 0.858
4 | RRIRNRPPRLPRPRPRPTSSPRP | 0.211
5 | RRIRERPPRLPRPRPRPPDKPRP | 0.0845
6 | RRIRFRPPRLPRPRPRPHYDPRP | -0.397
7 | RRIRRRPPRLPRPRPRPHEAPRP | 0.0262
8 | RRIRARPPRLPRPRPRPKWDPRP | 0.373
9 | RRIRARPPRLPRPRPRPARCPRP | 0.331
10 | RRIRDRPPRLPRPRPRPHAGPRP | 0.0575
11 | RRIRDRPPRLPRPRPRPQCDPRP | -0.0921
12 | RRIRMRPPRLPRPRPRPVGDPRP | 0.173
13 | RRIRERPPRLPRPRPRPPGMPRP | 0.0408
14 | RRIRRRPPRLPRPRPRPSTWPRP | 0.00308
15 | RRIRVRPPRLPRPRPRPPMTPRP | 0.209
16 | RRIRCRPPRLPRPRPRPAGDPRP | 0.176
17 | RRIRNRPPRLPRPRPRPMHAPRP | 0.0438
18 | RRIRQRPPRLPRPRPRPEARPRP | -0.00982
19 | RRIRQRPPRLPRPRPRPIIWPRP | 0.0173
20 | RRIRIRPPRLPRPRPRPSNHPRP | -1.15
21 | RRIRFRPPRLPRPRPRPQWHPRP | -0.461
22 | RRIRGRPPRLPRPRPRPMFEPRP | 0.688
23 | RRIRTRPPRLPRPRPRPMIIPRP | -0.0854
24 | RRIRDRPPRLPRPRPRPSADPRP | 0.368
25 | RRIRSRPPRLPRPRPRPKQNPRP | 0.0535

Row | Sequence | shrunken log2 fold change
26 | RRIRTRPPRLPRPRPRPQKPPRP | -0.0591
27 | RRIRSRPPRLPRPRPRPAKNPRP | 0.157
28 | RRIRARPPRLPRPRPRPYDTPRP | -0.0699
29 | RRIRPRPPRLPRPRPRPQVLPRP | -0.208
30 | RRIRTRPPRLPRPRPRPAILPRP | -0.157
31 | RRIRIRPPRLPRPRPRPNAVPRP | -0.266
32 | RRIRTRPPRLPRPRPRPTEFPRP | -0.0268
33 | RRIRDRPPRLPRPRPRPFRGPRP | 0.0499
34 | RRIRVRPPRLPRPRPRPRMCPRP | -0.35
35 | RRIRIRPPRLPRPRPRPTNKPRP | -0.687
36 | RRIRRRPPRLPRPRPRPMQAPRP | 1.13
37 | RRIRTRPPRLPRPRPRPCGNPRP | -0.0693
38 | RRIRARPPRLPRPRPRPKTMPRP | 0.352
39 | RRIRTRPPRLPRPRPRPQYIPRP | -0.331
40 | RRIRCRPPRLPRPRPRPRFMPRP | -0.244
41 | RRIRTRPPRLPRPRPRPMNNPRP | -0.582
42 | RRIRCRPPRLPRPRPRPRNPPRP | 0.176
43 | RRIRIRPPRLPRPRPRPCADPRP | -0.289
44 | RRIRERPPRLPRPRPRPSVRPRP | -0.148
45 | RRIRQRPPRLPRPRPRPNSTPRP | -0.642
46 | RRIRYRPPRLPRPRPRPYLTPRP | -0.305
47 | RRIRTRPPRLPRPRPRPVKCPRP | -0.0123
48 | RRIRPRPPRLPRPRPRPFTQPRP | -0.0301
49 | RRIRKRPPRLPRPRPRPQITPRP | -0.0657
50 | RRIRFRPPRLPRPRPRPFFEPRP | 0.0992

Row | Sequence | shrunken log2 fold change
51 | RRIRIRPPRLPRPRPRPRQNPRP | -0.459
52 | RRIRTRPPRLPRPRPRPQKMPRP | 0.176
53 | RRIRDRPPRLPRPRPRPWELPRP | 0.18
54 | RRIRYRPPRLPRPRPRPKMRPRP | 0.198
55 | RRIRGRPPRLPRPRPRPTVGPRP | 0.832
56 | RRIRERPPRLPRPRPRPGHVPRP | -0.00285
57 | RRIRRRPPRLPRPRPRPFEIPRP | -0.00184
58 | RRIRDRPPRLPRPRPRPNGLPRP | -0.0178
59 | RRIRWRPPRLPRPRPRPTLFPRP | 0.0961
60 | RRIRQRPPRLPRPRPRPPSFPRP | 0.0399
61 | RRIRTRPPRLPRPRPRPFEPPRP | -0.231
62 | RRIRLRPPRLPRPRPRPHSLPRP | 0.0368
63 | RRIRWRPPRLPRPRPRPWFPPRP | -0.0213
64 | RRIRYRPPRLPRPRPRPRRFPRP | 0.256
65 | RRIRARPPRLPRPRPRPHCIPRP | 0.102
66 | RRIRKRPPRLPRPRPRPVFYPRP | -0.0751
67 | RRIRERPPRLPRPRPRPWAGPRP | -0.208
68 | RRIRHRPPRLPRPRPRPCAKPRP | -0.251
69 | RRIRKRPPRLPRPRPRPTKLPRP | 0.246
70 | RRIRTRPPRLPRPRPRPHQDPRP | -0.245
71 | RRIRDRPPRLPRPRPRPHCCPRP | -0.00968
72 | RRIRDRPPRLPRPRPRPMRVPRP | 0.304
73 | RRIRKRPPRLPRPRPRPRLIPRP | 0.234
74 | RRIRRRPPRLPRPRPRPEAFPRP | 0.842
75 | RRIRHRPPRLPRPRPRPLKDPRP | -0.361

Row | Sequence | shrunken log2 fold change
76 | RRIRARPPRLPRPRPRPNEPPRP | -0.115
77 | RRIRMRPPRLPRPRPRPGHAPRP | 2.85
78 | RRIRRRPPRLPRPRPRPRNIPRP | -0.0349
79 | RRIRDRPPRLPRPRPRPPAEPRP | 0.525
80 | RRIRQRPPRLPRPRPRPRAEPRP | 0.292
81 | RRIRFRPPRLPRPRPRPMSIPRP | -0.354
82 | RRIRYRPPRLPRPRPRPGWGPRP | -0.13
83 | RRIRKRPPRLPRPRPRPCDMPRP | -0.00141
84 | RRIRMRPPRLPRPRPRPIIEPRP | -0.0631
85 | RRIRRRPPRLPRPRPRPNEYPRP | -0.123
86 | RRIRDRPPRLPRPRPRPHHPPRP | -0.408
87 | RRIRARPPRLPRPRPRPMRNPRP | 0.756
88 | RRIRRRPPRLPRPRPRPLLCPRP | 0.35
89 | RRIRSRPPRLPRPRPRPHFSPRP | -0.112
90 | RRIRCRPPRLPRPRPRPVSRPRP | 0.344
91 | RRIRPRPPRLPRPRPRPPMAPRP | 0.338
92 | RRIRGRPPRLPRPRPRPLWTPRP | 0.472
93 | RRIRFRPPRLPRPRPRPQWWPRP | -0.0312
94 | RRIRWRPPRLPRPRPRPFLNPRP | -0.425
95 | RRIRNRPPRLPRPRPRPNLNPRP | -0.557
96 | RRIRGRPPRLPRPRPRPTQQPRP | 0.94
97 | RRIRCRPPRLPRPRPRPWYHPRP | -0.392
98 | RRIRKRPPRLPRPRPRPWFFPRP | -0.043
99 | RRIRHRPPRLPRPRPRPPYHPRP | -0.495
100 | RRIRGRPPRLPRPRPRPWVYPRP | -0.0165

Row | Sequence | shrunken log2 fold change
101 | RRIRRRPPRLPRPRPRPSRVPRP | 0.553
102 | RRIRWRPPRLPRPRPRPHGVPRP | 0.0746
103 | RRIRVRPPRLPRPRPRPCNDPRP | -0.437
104 | RRIRQRPPRLPRPRPRPGNIPRP | -0.151
105 | RRIRLRPPRLPRPRPRPGPIPRP | 0.195
106 | RRIRFRPPRLPRPRPRPPYDPRP | -0.49
107 | RRIRMRPPRLPRPRPRPWDWPRP | 0.794
108 | RRIRTRPPRLPRPRPRPEPVPRP | 0.272
109 | RRIRQRPPRLPRPRPRPAKFPRP | -0.103
110 | RRIRERPPRLPRPRPRPTCEPRP | -0.122
111 | RRIRERPPRLPRPRPRPNQNPRP | -0.188
112 | RRIRGRPPRLPRPRPRPKPGPRP | 1.07
113 | RRIRNRPPRLPRPRPRPHCGPRP | -0.225
114 | RRIRYRPPRLPRPRPRPNQVPRP | -0.0141
115 | RRIRQRPPRLPRPRPRPSNVPRP | -0.0428
116 | RRIRERPPRLPRPRPRPWRQPRP | -0.00951
117 | RRIRNRPPRLPRPRPRPVQHPRP | -0.258
118 | RRIRARPPRLPRPRPRPCAYPRP | -0.399
119 | RRIRVRPPRLPRPRPRPTGNPRP | 2.77
120 | RRIRMRPPRLPRPRPRPGAGPRP | 1.22
121 | RRIRDRPPRLPRPRPRPRYFPRP | 0.242
122 | RRIRWRPPRLPRPRPRPTMCPRP | -0.00672
123 | RRIRMRPPRLPRPRPRPGGDPRP | 1.58
124 | RRIRWRPPRLPRPRPRPYPIPRP | 0.0625
125 | RRIRYRPPRLPRPRPRPIVRPRP | -0.0319
